# Test results: the Human Domainome abundance scans (Beltran et al. 2025)
# ± gives the uncertainty stated by the source.
# B1: Membrane-associated guanylate kinase, WW and PDZ domain-containing protein 2, residues 601 to 682; numbered along this chain, Q86UL8 (parent)
# chain: AELMTLTIVKGAQGFGFTIADSPTGQRVKQILDIQGCPGLCEGDLIVEINQQNVQNLSHTEVVDILKDCPIGSETSLIIHRG
# Variants of: B1
# Test: abundance fitness (aPCA) (normalised: wild type 0, dead -1); higher = more abundant; growth selection in yeast, the domain comes from the species named
# Conditions: Homo sapiens
row,Variant,abundance fitness
1,L6W,-0.147 ± 0.043
2,L6F,0.003 ± 0.091
3,L6D,-0.366 ± 0.082
4,L6R,-0.123 ± 0.031
5,L6C,0.038 ± 0.053
6,L6H,0.007 ± 0.073
7,L6A,-0.124 ± 0.036
8,L6K,-0.098 ± 0.044
9,L6Y,-0.064 ± 0.078
10,L6T,-0.059 ± 0.05
11,L6G,-0.315 ± 0.032
12,L6P,-0.204 ± 0.053
13,L6I,0.008 ± 0.061
14,L6V,-0.021 ± 0.036
15,L6M,-0.059 ± 0.049
16,L6S,-0.075 ± 0.042
17,L6Q,-0.083 ± 0.053
18,L6N,-0.166 ± 0.074
19,L6E,-0.193 ± 0.043
20,M4I,-0.061 ± 0.054
21,M4K,-0.002 ± 0.055
22,M4S,-0.097 ± 0.033
23,M4G,-0.118 ± 0.029

row,Variant,abundance fitness
1,M4W,-0.102 ± 0.032
2,M4A,-0.1 ± 0.034
3,M4H,-0.026 ± 0.065
4,M4C,-0.136 ± 0.041
5,M4P,-0.081 ± 0.04
6,M4F,0.058 ± 0.054
7,M4T,-0.014 ± 0.038
8,M4V,-0.039 ± 0.031
9,M4L,-0.078 ± 0.031
10,M4N,-0.063 ± 0.076
11,M4R,-0.157 ± 0.026
12,M4D,-0.013 ± 0.056
13,M4E,-0.106 ± 0.044
14,M4Q,-0.092 ± 0.044
15,M4Y,-0.022 ± 0.062
16,L3P,-0.2 ± 0.037
17,L3V,-0.032 ± 0.031
18,L3W,-0.162 ± 0.035
19,L3G,-0.018 ± 0.027
20,L3D,-0.024 ± 0.056
21,L3K,0.042 ± 0.038
22,L3F,0.016 ± 0.066
23,L3C,-0.095 ± 0.047

row,Variant,abundance fitness
1,L3M,0.029 ± 0.041
2,L3S,-0.028 ± 0.032
3,L3I,0.014 ± 0.06
4,L3H,0.035 ± 0.047
5,L3A,-0.03 ± 0.033
6,L3N,0.056 ± 0.053
7,L3T,0.015 ± 0.035
8,L3Q,0.014 ± 0.037
9,L3E,0.038 ± 0.039
10,T5F,-0.217 ± 0.097
11,T5Q,-0.088 ± 0.05
12,T5Y,-0.159 ± 0.057
13,T5G,-0.121 ± 0.042
14,T5D,-0.024 ± 0.075
15,T5M,0.029 ± 0.068
16,T5I,-0.169 ± 0.12
17,T5A,-0.098 ± 0.043
18,T5S,0.02 ± 0.042
19,T5V,-0.088 ± 0.037
20,T5P,-0.033 ± 0.048
21,T5E,-0.092 ± 0.054
